Measurements from patent US20220088180A1.
Read-outs that look alike come from different tables or passages of the source.

Experiments:
Assay in all cases: radioligand competition, purified MHC
HLA-A*02:01 (human) = biological target: HLA-A*02:01 (human)
HLA-A*26:01 (human) = biological target: HLA-A*26:01 (human)
HLA-B*15:01 (human) = biological target: HLA-B*15:01 (human)
HLA-B*44:02 (human) = biological target: HLA-B*44:02 (human)
HLA-B*51:01 (human) = biological target: HLA-B*51:01 (human)
HLA-A*01:01 (human) = biological target: HLA-A*01:01 (human)
HLA-B*07:02 (human) = biological target: HLA-B*07:02 (human)
HLA-B*18:01 (human) = biological target: HLA-B*18:01 (human)
HLA-B*44:03 (human) = biological target: HLA-B*44:03 (human)
[1] = remark: other sources report otherwise

Row | Binder | IC50 (HLA-A*02:01 (human)) [µM] | IC50 (HLA-A*26:01 (human)) [µM] | IC50 (HLA-B*15:01 (human)) [µM] | IC50 (HLA-B*44:02 (human)) [µM] | IC50 (HLA-B*51:01 (human)) [µM] | IC50 (HLA-A*01:01 (human)) [µM] | IC50 (HLA-B*07:02 (human)) [µM] | IC50 (HLA-B*18:01 (human)) [µM] | IC50 (HLA-B*44:03 (human)) [µM] | IC50 (HLA-A*01:01 (human); [1]) [µM] | IC50 (HLA-A*26:01 (human); [1]) [µM] | IC50 (HLA-B*15:01 (human); [1]) [µM] | IC50 (HLA-B*18:01 (human); [1]) [µM] | IC50 (HLA-B*44:02 (human); [1]) [µM] | IC50 (HLA-B*44:03 (human); [1]) [µM] | IC50 (HLA-B*51:01 (human); [1]) [µM] | IC50 (HLA-A*02:01 (human); [1]) [µM]
1 | MLLGSMLYM (modifications not checked) [… (SEQ ID NO: 4)] | < 0.0005 | 45.5 | 0.0011 | 18.9 | 7.87 | – | – | – | – | – | – | – | – | – | – | – | –
2 | KAFQLTPIAV (modifications not checked) [… (SEQ ID NO: 13)] | 0.0078 | > 70 | 1.2 | > 70 | 38.7 | > 70 | 8.6 | 3.87 | 16.4 | – | – | – | – | – | – | – | –
3 | FASEAARVV (modifications not checked) [… (SEQ ID NO: 17)] | 0.495 | 0.734 | 2.55 | > 70 | 0.207 | > 70 | 8.55 | 49.5 | > 70 | – | – | – | – | – | – | – | –
4 | QLTPTWRVY (modifications not checked) [… (SEQ ID NO: 38)] | > 70 | > 70 | 0.011 | > 70 | > 70 | > 70 | > 70 | > 70 | > 70 | – | – | – | – | – | – | – | –
5 | VGYLQPRTF (modifications not checked) [… (SEQ ID NO: 39)] | > 70 | > 70 | 0.777 | > 70 | – | > 70 | > 70 | 0.707 | > 70 | – | – | – | – | – | – | – | –
6 | SEFSSLPSY (modifications not checked) [… (SEQ ID NO: 27)] | > 70 | 0.875 | 0.0069 | – | > 70 | 39.8 | > 70 | 0.00037 | – | – | – | – | – | – | – | – | –
7 | LATNNLVVM (modifications not checked) [… (SEQ ID NO: 16)] | > 70 | > 70 | 0.315 | 40.2 | 32.7 | > 70 | 0.055 | > 70 | 46.5 | – | – | – | – | – | – | – | –
8 | GPMVLRGLIT (modifications not checked) [… (SEQ ID NO: 6)] | 2 | 0.884 | 8.55 | – | – | – | – | – | – | – | – | – | – | – | – | – | –
9 | FGDDTVIEV (modifications not checked) [… (SEQ ID NO: 23)] | – | – | – | – | – | – | > 70 | – | – | > 70 | > 70 | 2.38 | > 70 | > 70 | > 70 | 45.7 | –
10 | NATNVVIKV (modifications not checked) [… (SEQ ID NO: 37)] | – | 43.4 | > 70 | > 70 | 0.536 | > 70 | > 70 | > 70 | 8.11 | – | – | – | – | – | – | – | –
11 | EIKESVQTF (modifications not checked) [… (SEQ ID NO: 15)] | > 70 | 0.0078 | 4.93 | 37.2 | > 70 | > 70 | > 70 | > 70 | > 70 | – | – | – | – | – | – | – | –
12 | YLNSTNVTI (modifications not checked) [… (SEQ ID NO: 24)] | 0.012 | – | 0.0012 | – | 3.62 | – | 7.93 | – | 49.6 | – | – | – | – | – | – | – | –
13 | STSAFVETV (modifications not checked) [… (SEQ ID NO: 19)] | 0.026 | 12.1 | 10.4 | > 70 | > 70 | 12.7 | 8.86 | > 70 | > 70 | – | – | – | – | – | – | – | –
14 | EEFEPSTQYEY (modifications not checked) [… (SEQ ID NO: 20)] | > 70 | 18.8 | 0.078 | 0.05 | > 70 | > 70 | > 70 | 0.0011 | 0.00041 | – | – | – | – | – | – | – | –
15 | IRQEEVQEL (modifications not checked) [… (SEQ ID NO: 31)] | > 70 | > 70 | > 70 | > 70 | > 70 | > 70 | > 70 | > 70 | > 70 | – | – | – | – | – | – | – | –
16 | FAVDAAKAY (modifications not checked) [… (SEQ ID NO: 28)] | > 70 | 0.0067 | 0.0027 | > 70 | > 70 | > 70 | > 70 | 35.9 | > 70 | – | – | – | – | – | – | – | –
17 | KNIDGYFKIY (modifications not checked) [… (SEQ ID NO: 36)] | 11.8 | > 70 | 1.45 | > 70 | > 70 | > 70 | > 70 | > 70 | > 70 | – | – | – | – | – | – | – | –
18 | KRVDWTIEY (modifications not checked) [… (SEQ ID NO: 29)] | – | – | – | – | – | – | > 70 | – | – | > 70 | > 70 | 0.356 | > 70 | > 70 | > 70 | 22.7 | > 70
19 | LEDKAFQL (modifications not checked) [LEDKAFQL (SEQ ID NO: 10)] | 3.89 | – | 14.7 | 35.4 | – | – | – | 0.035 | 0.208 | – | – | – | – | – | – | – | –
20 | ELPDEFVVVTV (modifications not checked) [… (SEQ ID NO: 8)] | 0.0016 | 0.072 | 35.1 | > 70 | > 70 | > 70 | > 70 | 1.13 | > 70 | – | – | – | – | – | – | – | –
21 | APHGHVMVEL (modifications not checked) [… (SEQ ID NO: 14)] | > 70 | > 70 | > 70 | > 70 | > 70 | > 70 | 0.0061 | > 70 | > 70 | – | – | – | – | – | – | – | –
22 | DEFVVVTV (modifications not checked) [DEFVVVTV (SEQ ID NO: 11)] | 13 | 9.55 | 2.05 | 2.79 | 12.8 | > 70 | 52.8 | < 0.0005 | 1.28 | – | – | – | – | – | – | – | –
23 | HADQLTPTW (modifications not checked) [… (SEQ ID NO: 35)] | – | – | 13.4 | 5.26 | – | – | – | 3.35 | 1.8 | – | – | – | – | – | – | – | –
24 | SLEDKAFQL (modifications not checked) [… (SEQ ID NO: 7)] | 0.02 | – | 1.58 | – | – | – | – | – | – | – | – | – | – | – | – | – | –
25 | GLITLSYHL (modifications not checked) [… (SEQ ID NO: 5)] | < 0.0005 | 40.3 | 1.5 | 26 | – | – | 14.3 | – | 24.3 | – | – | – | – | – | – | – | –
26 | ELPDEFVVV (modifications not checked) [… (SEQ ID NO: 12)] | 0.46 | 6.86 | > 70 | > 70 | > 70 | > 70 | > 70 | > 70 | > 70 | – | – | – | – | – | – | – | –
27 | APRITFGGP (modifications not checked) [… (SEQ ID NO: 42)] | 0.893 | > 70 | > 70 | > 70 | > 70 | > 70 | 0.059 | > 70 | > 70 | – | – | – | – | – | – | – | –
